Assay [1] deals with full-length, wild-type Cry6Aa1 (Bacillus thuringiensis) (UniProt Q45757). The experiment in a line: SEC + other: non-denaturing and denaturing SDS-PAGE; Superdex 75 26/90, 25 mM CAPS pH 10, 50 mM NaCl, 2.5 ml/min; first peak at the void volume held dimers (only monomers on denaturing SDS-PAGE), second peak predominantly monomer.
Assay [2] addresses T1, Cry6Aa trypsin-resistant core, polypeptide chain 12-390 (Bacillus thuringiensis, UniProt Q45757 12-390).
T1 construct: cut after Arg11 and after Arg390; Never separated from the C-terminal peptide without reduction; Cys88 is disulfide bonded to Cys451 of the peptide; also called main body of the toxin; major core
T1 sequence (looked up): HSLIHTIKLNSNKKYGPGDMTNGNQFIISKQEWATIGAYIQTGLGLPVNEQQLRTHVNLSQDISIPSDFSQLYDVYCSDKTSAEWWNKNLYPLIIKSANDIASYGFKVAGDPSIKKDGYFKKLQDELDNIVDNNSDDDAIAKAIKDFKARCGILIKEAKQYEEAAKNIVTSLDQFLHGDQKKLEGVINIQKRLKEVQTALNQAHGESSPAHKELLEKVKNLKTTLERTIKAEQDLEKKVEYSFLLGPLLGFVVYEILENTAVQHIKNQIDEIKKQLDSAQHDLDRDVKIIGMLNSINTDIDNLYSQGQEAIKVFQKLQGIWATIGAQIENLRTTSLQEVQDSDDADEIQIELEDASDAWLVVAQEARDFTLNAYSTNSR
The experiment in a line: intact mass LC-MS. To be noted: both partners purified.

The text below walks through data of paper PMC5004264, “The pesticidal Cry6Aa toxin from Bacillus thuringiensis is structurally similar to HlyE-family alpha pore-forming toxins” (BMC Biology, 2016).

In general, stoichiometry N refers to the number of molecules, sites or subunits per partner or assembly. For “full-length, wild-type Cry6Aa1 (from UniProt Q45757 1-475) (natural protein)”, in assay [1], the stoichiometry N came out at 2.

B1: Cry6Aa C-terminal peptide CTP2 (residues 451-475) (peptide)
peptide: CPENNFMIYWYNNSDWYNNSDWYNN
notes: Minor species of the trypsin-processed toxin
On to B1, for which the binding result in assay [2] was “binds”.

B2: Cry6Aa C-terminal peptide CTP1 (residues 444-475) (peptide)
peptide: NSNLEYKCPENNFMIYWYNNSDWYNNSDWYNN
notes: Cys451 is disulfide bonded to Cys88 of chain 12-390
Consider B2, for which the binding result in assay [2] is “binds”.
